The values that follow come from patent US20100273186A1, “SPLIT MUTANT HYDROLASE FUSION REPORTER AND USES THEREOF” (Promega Corporation, priority 2007, published 2010).

The nature of series [1]: Kinetic labeling studies, fluorimage gel analysis. Conditions: 10 ng protein, refined time-course, fluorimaged gel. It is filed as binding. How it is done:
To facilitate comparative kinetic studies several improved DhaA mutants were selected for purification using a Glutathione Sepharose 4B resin. In general, production of DhaA.H272F and DhaA.D106C based fusions in E. coli was robust, although single amino acid changes may have negative consequences on the production of DhaA. As a result of this variability in protein production, the overall yield of the DhaA mutants also varied considerably (1-15 mg/mL). Preliminary kinetic labeling studies were performed using several DhaA.H272F derived mutants. Many, if not all, of the mutants chosen for analysis had faster labeling kinetics than the H272F parent. In fact, upon closer inspection of the time course, the labeling of several DhaA mutants including the first generation mutant YL and the two second generation mutants, A7YM and H11YL mutants appeared to be complete by 2 minutes. A more expanded time course analysis was performed on the DhaA.H272F A7 and the two second generation DhaA.H272F mutants A7YM and H11YL. […] The fluorescent bands on gel were quantitated and the relative rates of product formation determined. […] Under these labeling conditions a linear initial rate could be measured. Quantitation of the fluorimaged gel data allowed second order rate constants to be calculated. […]

Series [2] in a line: Thermostability of mutant DhaAs. The class given is physicochemical. On the procedure: Moreover, V7>V6>V7F>V3>HT2 for thermostability. For example, under some conditions (30 minute exposure to 48° C.) purified V7F loses 50% of its activity, while V7 still maintains 80% activity. The thermostability discrepancy between the two is more dramatic when they V7 and V7F are expressed in E. coli and analyzed as lysates.

In series [3] the target is T1, rapamycin-mediated FRB/FKBP protein-protein interaction (Homo sapiens, UniProt P42345+P62942).
T1 construct: made in house; host or cells: cell-free: RiboMax transcription followed by Wheat Germ Plus translation
Description: Protein complementation labeling (PCL) in vitro with split HT2. The class given is biochemical. Conditions: with or without 1 μM rapamycin, 0.1 μM TMR ligand. How it is done:
The rapamycin-mediated FRB/FKBP protein-protein interaction and a mutant DhaA were employed in a PCL. FRB and FKBP will only interact when rapamycin is present. Therefore, if PCL is successful, the reconstituted reporter is labeled only when the fusion proteins are incubated together in the presence of rapamycin.
Two pF9 (Kan) vectors were generated which contained either FRB or FKBP ORF plus the linker sequence (GlyGlyGlyGlySer)2 (SEQ ID NO:14 represents GlyGlyGlyGlySer) upstream of the SefI/PmeI sites. A mutant DhaA gene (HT2) at positions corresponding to those useful to prepare Renilla luciferase fragments for PCS (see Example 2 and FIG. 7) with FRB-N terminal and FKBP-C terminal fusions. HT2 N- and C-termini halves were amplified using PCR primers and cloned into the SefI/PmeI sites. PCL was performed in vitro by expressing each clone individually using RiboMax followed by Wheat Germ Plus reactions (HT2). Protein was expressed with or without FluoroTect™. FluoroTect™ labeling ensured that all proteins were expressed in approximately equal amounts (data not shown). Unlabeled proteins were then incubated alone or with the appropriated partner with or without 1 μM rapamycin. Ten μl of these products were then incubated with 0.1 μM of a TMR labeled ligand for the mutant dehalogenase, for 2 hours in the dark. […]

The target in series [4] is T1, rapamycin-mediated FRB/FKBP protein-protein interaction. Description: PCL in transiently transfected CHO cells. It is filed as cell-based. Particulars: +/−1 μM rapamycin, 1.0 μM HaloTag TMR ligand. On the procedure:
For transient transfections, CHO cells were plated in a 6 well plate and transfected in duplicate using TransIT®-CHO. The next day, cells were incubated +/−1 μM rapamycin for 2.5 hours followed by 1.0 μM HaloTag® TMR ligand for 1 hour. Cells were washed in PBS, trypsinized, pelleted and mechanically lysed in 200 ul PBS with protease inhibitor and RQDNase I. Normalized amounts of proteins were microwaved for 30 seconds on high and run on a denaturing NuPAGE® gel.

Series [5] in a line: Fluorescence polarization (FP) labeling assay. The class given is binding. The source says:
Fluorescence polarization (FP) is ideal for the study of small fluorescent ligands binding to proteins. It is unique among methods used to analyze molecular binding because it gives direct nearly instantaneous measure of a substrate bound/free ratio. Therefore, an FP assay was developed as an alternative approach to fluorimage gel analysis of the purified DhaA mutants. […] To place this rate in perspective, approximately 42 and 420-fold more A7 and parental, i.e., DhaA.H272F, protein, respectively, was required in the reaction to obtain measurable rates. Under the labeling conditions used, it is evident that the H11YL mutant was also considerably faster than A7 and parental, DhaA.H272F proteins with the fluorescein-based substrate. However, it appears that labeling of H11YL with carboxyfluorescein-C10H21NO2—Cl is markedly slower than labeling with the corresponding carboxytetramethylrhodamine-C10H21NO2—Cl substrate. Four-fold more H11YL protein was used in the carboxyfluorescein-C10H21NO2—Cl reaction (150 nM) versus the carboxytetramethylrhodamine-C10H21NO2—Cl reaction (35 nM), yet the rate observed appeared to be qualitatively slower than the observed carboxytetramethylrhodamine-C10H21NO2—Cl rate.
Based on the sensitivity and truly homogenous nature of this assay, FP was used to characterize the labeling properties of the purified DhaA mutants with the fluorescently coupled substrates. The data from these studies was then used to calculate a second order rate constant for each DhaA mutant-substrate pair. […] However, in each case labeling was slower with the carboxyfluorescein-C10H21NO2—Cl substrate. All of the first generation DhaA mutants characterized by FP had rates that ranged from 7 to 3555-fold faster than the corresponding parental protein. By far, the biggest impact on labeling rate by a single amino acid substitution occurred with the three replacements at the 273 position (Y273L, Y273M, and Y273C) in the DhaA.H272F background. Nevertheless, in each of the first generation DhaA.H272F mutants tested, labeling with the carboxyfluorescein-C10H21NO2—Cl substrate always occurred at a slower rate (1.6 to 46-fold). […] The H11YL rate constant of 2.2×10^6 M^−1 sec^−1 was nearly identical to the rate constant calculated for a carboxytetramethylrhodamine-coupled biotin/streptavidin interaction. This value is consistent with an on-rate of 5×10^6 M^−1 sec^1 determined for a biotin-streptavidin interaction using surface plasmon resonance analysis (Qureshi et al., 2001). Several of the second generation mutants also had improved rates with the carboxyfluorescein-C10H21NO2—Cl substrate, however, as noted previously, these rates were always slower than with the carboxytetramethylrhodamine-C10H21NO2—Cl substrate. […]
A general note: Fluorescence polarisation rises when a labelled molecule tumbles more slowly, as on binding a larger partner.

T1 sequence (P42345 2012-2144 limits assumed): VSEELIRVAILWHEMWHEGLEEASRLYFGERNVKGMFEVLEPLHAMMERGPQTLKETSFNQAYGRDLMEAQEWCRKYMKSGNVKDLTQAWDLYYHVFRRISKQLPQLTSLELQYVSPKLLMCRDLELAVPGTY
T1 sequence (P62942 whole entry): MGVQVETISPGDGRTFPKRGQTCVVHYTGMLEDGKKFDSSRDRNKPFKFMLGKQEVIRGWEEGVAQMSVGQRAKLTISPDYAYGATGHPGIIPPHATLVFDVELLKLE

B1: H11YL: second generation DhaA.H272F mutant, H11 recombined with Y273L; SEQ ID NO:18 (protein)
chain: SEIGTGFPFDPHYVEVLGERMHYVDVGPRDGTPVLFLHGNPTSSYLWRNIIPHVAPSHRCIAPDLIGMGKSDKPDLDYFFDDHVRYLDAFIEALGLEEVVLVIHDWGSALGFHWAKRNPERVKGIACMEFIRPIPTWDEWPEFARETFQAFRTADVGRELIIDQNAFIEGALPMGVVRPLTEVEMDHYREPFLKPVDREPLWRFPNELPIAGEPANIVALVEAYMNWLHQSPVPKLLFWGTPGVLIPPAEAARLAESLPNCKTVDIGPGLFLLQEDNPDLIGSEIARWLPAL
As to B1, the “second order rate constant for labeling” value in series [1] amounted to 500000 M⁻¹ s⁻¹. For the same molecule, the thermostability ranking entry in series [2] was “V7>V6>V7F>V3>HT2”. The TMR labeling entry in series [3] was “labeled”. The “TMR labeling in CHO cells” value in series [4] is recorded as “labeled irrespective of rapamycin addition”. In series [5], the “carboxyfluorescein-C10H21NO2—Cl labeling rate slower/lower than carboxytetramethylrhodamine-C10H21NO2—Cl labeling rate” value came to 100 fold. For the same molecule, in series [5] (FP), the “calculated second order rate constant” value was 2.2e+06 M⁻¹ s⁻¹ and the “second order rate constant compared with the DhaA.H272F parent” value is listed as “over four orders of magnitude higher”.
